Assay results from doi:10.1101/2021.12.03.471045 (bioRxiv, 2021).

Target: early pandemic (Wuhan) SARS-CoV-2 RBD (SARS-CoV-2, UniProt P0DTC2)
Test: crystal structure
Details: both partners purified

B1: mAb 158 Fab (Fab, V domains shown)
VH: EVQLLESGGDLIQPGGSLRLSCAASGVTVSSNYMSWVRQAPGKGLEWVSIIYPGGSTFYADSVKGRFTISRDNSKNTLYLQMHSLRAEDTAVYYCARDLGSGDMDVWGKGTTVTVSS
VL: DIVMTQSPSFLSASVGDRVTITCRASQGISSYLAWYQQKPGKAPKLLIQAASTLQSGVPSRFSGSGSGTEFTLTISSLQPEDFATYYCQQLNSYRYTFGQGTKVEIK
Does B1 bind?
Result: binds

B2: mAb 58 Fab (Fab, V domains shown)
VH: QVQLVESGGGLVQPGRSLRLSCAASGFTFDDYAMHWVRQPPGKGLEWVSGVSWNSGTIGYADSVKGRFIISRDNAKNSLYLQMNSLKAEDTALYYCAREVGGTFGVLISREGGLDYWGQGTLVTVSS
VL: SYELTQPPSVSVAPGQTARITCGGNTIGSKSVHWYQQRPGQAPVLVVYDDSDRPSGIPERFSGSNSGNTATLTISRVEAGDEADYYCQVWDSSSDRVVFGGGTKLTVL
Does B2 bind?
Result: binds
